B1: Nuclear distribution protein nudE homolog 1 (Homo sapiens), Q9NXR1 (parent)
chain: MEDSGKTFSSEEEEANYWKDLAMTYKQRAENTQEELREFQEGSREYEAELETQLQQIETRNRDLLSENNRLRMELETIKEKFEVQHSEGYRQISALEDDLAQTKAIKDQLQKYIRELEQANDDLERAKRATIMSLEDFEQRLNQAIERNAFLESELDEKENLLESVQRLKDEARDLRQELAVQQKQEKPRTPMPSSVEAERTDTAVQATGSVPSTPIAHRGPSSSLNTPGSFRRGLDDSTGGTPLTPAARISALNIVGDLLRKVGALESKLASCRNLVYDQSPNRTGGPASGRSSKNRDGGERRPSSTSVPLGDKGLDTSCRWLSKSTTRSSSSC

Variants of: B1
Conditions: with 1433e_human YWHAE

effect of a mutation on the interaction | Variant
with no effect | MEDSGKTFSSEEEEANYWKDLAMTYKQRAENTQEELREFQEGSREYEAELETQLQQIETRNRDLLSENNRLRMELETIKEKFEVQHSEGYRQISALEDDLAQTKAIKDQLQKYIRELEQANDDLERAKRATIMSLEDFEQRLNQAIERNAFLESELDEKENLLESVQRLKDEARDLRQELAVQQKQEKPRTPMPSSVEAERTDTAVQATGSVPSTPIAHRGPSSSLNTPGSFRCGLDDSTGGTPLTPAARISALNIVGDLLRKVGALESKLASCRNLVYDQSPNRTGGPASGRSSKNRDGGERRPSSTSVPLGDKGLDTSCRWLSKSTTRSSSSC [R234C]
decreasing interaction strength | MEDSGKTFSSEEEEANYWKDLAMTYKQRAENTQEELREFQEGSREYEAELETQLQQIETRNRDLLSENNRLRMELETIKEKFEVQHSEGYRQISALEDDLAQTKAIKDQLQKYIRELEQANDDLERAKRATIMSLEDFEQRLNQAIERNAFLESELDEKENLLESVQRLKDEARDLRQELAVQQKQEKPRTPMPSSVEAERTDTAVQATGSVPFTPIAHRGPSSSLNTPGSFRRGLDDSTGGTPLTPAARISALNIVGDLLRKVGALESKLASCRNLVYDQSPNRTGGPASGRSSKNRDGGERRPSSTSVPLGDKGLDTSCRWLSKSTTRSSSSC [S214F]

The next lines start with the variant.

Variant | effect of a mutation on the interaction
MEDSGKTFSSEEEEANYWKDLAMTYKQRAENTQEELREFQEGSREYEAELETQLQQIETRNRDLLSENNRLRMELETIKEKFEVQHSEGYRQISALEDDLAQTKAIKDQLQKYIRELEQANDDLERAKRATIMSLEDFEQRLNQAIERNAFLESELDEKENLLESVQRLKDEARDLRQELAVQQKQEKPRTPMPSSVEAERTDTAVQATGSVPATPIAHRGPSSSLNTPGSFRRGLDDSTGGTPLTPAARISALNIVGDLLRKVGALESKLASCRNLVYDQSPNRTGGPASGRSSKNRDGGERRPSSTSVPLGDKGLDTSCRWLSKSTTRSSSSC [S214A] | with no effect
MEDSGKTFSSEEEEANYWKDLAMTYKQRAENTQEELREFQEGSREYEAELETQLQQIETRNRDLLSENNRLRMELETIKEKFEVQHSEGYRQISALEDDLAQTKAIKDQLQKYIRELEQANDDLERAKRATIMSLEDFEQRLNQAIERNAFLESELDEKENLLESVQRLKDEARDLRQELAVQQKQEKPRTPMPSSVEAERTDTAVQATGSVPSAPIAHRGPSSSLNTPGSFRRGLDDSTGGTPLTPAARISALNIVGDLLRKVGALESKLASCRNLVYDQSPNRTGGPASGRSSKNRDGGERRPSSTSVPLGDKGLDTSCRWLSKSTTRSSSSC [T215A] | decreasing interaction strength

From IntAct's records for PubMed 25332407
